The values that follow come from FireProtDB.

For this series the following is noted: whole UniProt chain shown.
[1] abbreviates: Bacillus amyloliquefaciens, pH 6, 25 °C, GdnHCl, Fluorescence, MES 50 mM, CaCl2 5 mM, reversible: no.
The mark [2] stands for this setting: Bos taurus, pH 5.3, 5 °C, GdnHCl, CD, Sodium acetate 0.02 M, reversible: yes.
The mark [3] stands for this setting: Bacillus subtilis (strain 168), pH 6, 27 °C, Thermal, CD, sodium phosphate 50 mM, reversible: yes.
Where [4] appears, read: Bos taurus, pH 5, Thermal, CD, Tris-acetate 0.01 M, reversible: yes.
The mark [5] stands for this setting: Bos taurus, pH 8.4, Thermal, CD, Tris-acetate 0.01 M, reversible: no.
Setting [6] is: Bos taurus, pH 2, Thermal, CD, KCl-HCl 0.1 M, reversible: yes.
The mark [7] stands for this setting: Bos taurus, pH 2, Thermal, CD, Sodium phosphate 0.2 M, reversible: yes.
Where [8] appears, read: Bos taurus, pH 2, Thermal, DSC, KCl-HCl 0.1 M, reversible: yes.
[9] abbreviates: Bos taurus, pH 6.2, 25 °C, 2-Propanol, CD, Piperazine Unknown, NaCl 30 mM, transition: 2, reversible: Yes.

Several values for one entry are separate records, joined by “and”; a condition that tells them apart may be missing. Identical values can stand only once.

B1: Beta-glucanase wild type, P07980 (protein)
chain: MKRVLLILVTGLFMSLCGITSSVSAQTGGSFFEPFNSYNSGLWQKADGYSNGDMFNCTWRANNVSMTSLGEMRLALTSPSYNKFDCGENRSVQTYGYGLYEVRMKPAKNTGIVSSFFTYTGPTEGTPWDEIDIEFLGKDTTKVQFNYYTNGAGNHEKFADLGFDAANAYHTYAFDWQPNSIKWYVDGQLKHTATTQIPAAPGKIMMNLWNGTGVDDWLGSYNGVNPIYAHYDWMRYRKK
With B1, under setting [1], the “denaturant midpoint (higher = more stable)” value (“denaturant midpoint” below) was 2.73 M and 2.84 M; the unfolding free energy was 12.9 kcal/mol and 4.97 kcal/mol.

B2: Acyl-CoA-binding protein wild type, P07107 (protein)
chain: MSQAEFDKAAEEVKHLKTKPADEEMLFIYSHYKQATVGDINTERPGMLDFKGKAKWDAWNELKGTSKEDAMKAYIDKVEELKKKYGI
Take B2: under setting [2], the denaturant m value amounted to 2.7 kcal/mol/M, the “denaturant midpoint” value is 2.36 M and the unfolding free energy amounted to 6.1 kcal/mol.

B3: FMN-dependent NADPH-azoreductase wild type, O07529 (protein)
chain: MNMLVINGTPRKHGRTRIAASYIAALYHTDLIDLSEFVLPVFNGEAEQSELLKVQELKQRVTKADAIVLLSPEYHSGMSGALKNALDFLSSEQFKYKPVALLAVAGGGKGGINALNNMRTVMRGVYANVIPKQLVLDPVHIDVENATVAENIKESIKELVEELSMFAKAGNPGV
One may read the Tm as the temperature at the midpoint of the melting transition. As for B3, the Tm (Bacillus subtilis (strain 168), pH 7.5, Thermal, CD, Tris-HCl 100 mM, reversible: No) stood at 86.5 °C.

B4: Cytidine deaminase wild type, P19079 (protein)
chain: MNRQELITEALKARDMAYAPYSKFQVGAALLTKDGKVYRGCNIENAAYSMCNCAERTALFKAVSEGDTEFQMLAVAADTPGPVSPCGACRQVISELCTKDVIVVLTNLQGQIKEMTVEELLPGAFSSEDLHDERKL
On to B4, for which the unfolding free energy (Bacillus subtilis (strain 168), pH 7, 25 °C, GdnHCl, CD, potassium phosphate 20 mM, reversible: no) is 2.5 kcal/mol.

B5: Chemotaxis protein CheY wild type, P24072 (protein)
chain: MAHRILIVDDAAFMRMMIKDILVKNGFEVVAEAENGAQAVEKYKEHSPDLVTMDITMPEMDGITALKEIKQIDAQARIIMCSAMGQQSMVIDAIQAGAKDFIVKPFQADRVLEAINKTLN
Take B5: under setting [3], the “heat capacity change of unfolding” value amounted to 2.34 kcal/mol/K and the unfolding free energy worked out at 3.14 kcal/mol. For the same protein, the midpoint of thermal melting (Tm) (Bacillus subtilis (strain 168), pH 6, Thermal, CD, sodium phosphate 50 mM, reversible: yes) was 54.9 °C.

B6: Seminal ribonuclease wild type, P00669 (protein)
chain: MALKSLVVLPLLVLVLLLVRVQPSLGKESAAAKFERQHMDSGNSPSSSSNYCNLMMCCRKMTQGKCKPVNTFVHESLADVKAVCSQKKVTCKNGQTNCYQSKSTMRITDCRETGSSKYPNCAYKTTQVEKHIIVACGGKPSVPVHFDASV
Take B6: under setting [4], the Tm stood at 61.6 °C and the “unfolding enthalpy (van 't Hoff)” value came to 151 kcal/mol. In addition, under setting [5], the Tm worked out at 65.2 °C and the “unfolding enthalpy (van 't Hoff)” value was determined as 199 kcal/mol.

B7: Beta-lactoglobulin wild type, P02754 (protein)
chain: MKCLLLALALTCGAQALIVTQTMKGLDIQKVAGTWYSLAMAASDISLLDAQSAPLRVYVEELKPTPEGDLEILLQKWENGECAQKKIIAEKTKIPAVFKIDALNENKVLVLDTDYKKYLLFCMENSAEPEQSLACQCLVRTPEVDDEALEKFDKALKALPMHIRLSFNPTQLEEQCHI
For B7, the melting temperature (Tm) is, setting by setting: under setting [6], 78 °C; under setting [7], 91 °C; under setting [8], 77.8 °C; (Bos taurus, pH 3, Thermal, DSC, phosphate 20 mM, reversible: yes) 77 °C. In addition, the “heat capacity change of unfolding” value runs as follows: under setting [6], 1.33 kcal/mol/K; under setting [7], 1.35 kcal/mol/K; under setting [8], 1.33 kcal/mol/K. For the same protein, the “unfolding enthalpy (van 't Hoff)” value under setting [6] came to 74.6 kcal/mol and the “unfolding enthalpy (van 't Hoff)” value under setting [7] is 88.8 kcal/mol. Further, the “unfolding enthalpy (calorimetric)” value under setting [8] was 74.7 kcal/mol. Besides, the denaturant m value under setting [9] came out at 0.9 kcal/mol/M. Besides, the “denaturant midpoint” value under setting [9] is 4 M. Also, the unfolding free energy under setting [9] is 3.8 kcal/mol; the unfolding free energy (Bos taurus, pH 6.85, 25 °C, Urea, CD, Phosphate 0.01 M, chloride 0.2 M) came out at 6.99 kcal/mol; the unfolding free energy (Bos taurus, pH 6.85, 25 °C, Urea, CD, Phosphate 0.01 M, citrate 0.2 M) came out at 9.79 kcal/mol; the unfolding free energy (Bos taurus, pH 6.85, 25 °C, Urea, CD, Phosphate 0.01 M, phosphate 0.2 M) was 9.18 kcal/mol; the unfolding free energy (Bos taurus, pH 6.85, 25 °C, Urea, CD, Phosphate 0.01 M, sulfate 0.2 M) was 8.8 kcal/mol; the unfolding free energy (Bos taurus, pH 6.85, 25 °C, Urea, CD, Phosphate 0.01 M, tartrate 0.2 M) was found to be 7.58 kcal/mol. Moreover, the unfolding free energy (Bos taurus, pH 7.1, 30 °C, GdnHCl, CD, phosphate 0.11 M, NaCl 0.04 M) turned out to be 11.2 kcal/mol.
